According to patent US20240101668A1 (WUGEN, published 2024):

How the values were obtained:
[1] = target: T1, huCD33-G69 stably expressed on Jurkat cells (human, UniProt P20138 18-364); assay: FACS on cells;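 further: fixed Jurkat lines probed with myc-tagged scFv periplasmic extracts, anti-myc PE flow cytometry, PE MFI fold binned − <2, + 2–10, ++ 10–30, +++ >30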
T1 construct: whole, on cells; >200,000 receptors per cell; also called CD33 Mutant; CD33 R69G

[2] = target: T2, huCD33-R69 stably expressed on Jurkat cells (human, UniProt P20138 18-364); assay: FACS on cells;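 further: fixed Jurkat lines probed with myc-tagged scFv periplasmic extracts, anti-myc PE flow cytometry, PE MFI fold binned − <2, + 2–10, ++ 10–30, +++ >30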
T2 construct: whole, on cells; >200,000 receptors per cell; also called CD33 WT; CD33^ARG69

[3] = target: T3, huCD33-G69-Fc recombinant protein (human, UniProt P20138 18-259); assay: BLI;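 further: biolayer interferometry: scFvs captured from periplasmic extracts on anti-V5-loaded streptavidin biosensors, antigen association for 2 min, buffer dissociation for 5 min, 1:1 Langmuir fit giving off-rate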
T3 construct: extracellular domain; also called CD33 R69G
T3 sequence (P20138 18-259 R69G): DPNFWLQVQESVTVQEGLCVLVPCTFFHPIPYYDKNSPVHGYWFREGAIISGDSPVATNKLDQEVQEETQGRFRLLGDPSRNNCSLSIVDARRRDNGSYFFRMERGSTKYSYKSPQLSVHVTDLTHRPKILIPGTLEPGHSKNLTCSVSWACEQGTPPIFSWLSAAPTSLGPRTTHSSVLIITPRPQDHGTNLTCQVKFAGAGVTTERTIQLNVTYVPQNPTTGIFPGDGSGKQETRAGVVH
Protocol: Discovered scFvs were analyzed for binding to huCD33-R69-His or huCD33-G69-Fc recombinant proteins (for anti-CD33 scFvs; for CLL-1 scFvs, huCLL1-K244-Avi-Tev-His or huCLL1-Q244-Avi-Tev-His were used; for FLT3, huFLT3-T227-His or huFLT3-M227-Fc were used) using BLI on a ForteBio Octet HTX instrument. Streptavidin-coated biosensors were loaded with biotinylated anti-V5 tag monoclonal antibody for 5 min and were then quenched and blocked with 20 μM amine-PEG2-Biotin for 5 min. scFvs were captured on biosensors from scFv clone periplasmic extracts. huCD33 (or huCLL-1, or huFLT3) proteins were then associated with the captured scFvs for 2 minutes, followed by dissociation with buffer (1×HBST [10 mM HEPES pH 7.4, 150 mM NaCl, 0.05% Tween-20], 1 g/L BSA) for 5 minutes. […] Data was fitted with 1:1 Langmuir equation and off-rate values were reported.

T2 sequence (P20138 18-364): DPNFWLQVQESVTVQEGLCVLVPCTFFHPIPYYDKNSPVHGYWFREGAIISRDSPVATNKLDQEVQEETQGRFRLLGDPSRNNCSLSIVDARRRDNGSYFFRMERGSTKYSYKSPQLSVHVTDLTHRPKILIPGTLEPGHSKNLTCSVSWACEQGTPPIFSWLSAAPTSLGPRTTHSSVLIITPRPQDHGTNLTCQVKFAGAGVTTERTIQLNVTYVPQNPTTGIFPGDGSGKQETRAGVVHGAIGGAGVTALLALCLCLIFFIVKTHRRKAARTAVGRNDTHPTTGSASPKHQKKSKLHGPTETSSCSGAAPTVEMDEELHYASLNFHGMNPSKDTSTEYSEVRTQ
T1 sequence (P20138 18-364 R69G): as the sequence (P20138 18-364) above, with R52G counted along it

FACS geometric mean fold change over Jurkat parental [1] | FACS geometric mean fold change over Jurkat parental [2] | binding result [3] | Binder
10 to 30 fold | 10 to 30 fold | binds | Polypeptide No. 109 (scFv, V domains shown, scFv) VH: QVQLVQSGAEVKKPGSSVKVSCKASGYTFTTYGISWVRQAPGQGLEWMGWMNPNSGNTGYAQKFQGRVTITADESTSTAYMELSSLRSEDTAVYYCAREGGDGDYPDYWGQGTLVTVSS VL: EIVMTQSPATLSVSPGERATLSCRASQSISSSSLAWYQQKPGQAPRLLIYGASTRATGIPARFSGSGSGTEFTLTISSLQSEDFAVYYCQQYETAPYTFGQGTKLEIKR
10 to 30 fold | > 30 fold | binds | Polypeptide No. 111 (scFv, V domains shown, scFv) VH: QVQLVQSGAEVKKPGASVKVSCKASGGTFTSYGISWVRQAPGQGLEWMGWINPNTGVTNYAQDFQGRVTMTRDTSTSTVYMELSSLRSEDTAVYYCANEQGGFDYWGQGTLVTVSS VL: EIVMTQSPATLSVSPGERATLSCRASQSVAGSYLAWYQQKPGQAPRLLIYGASTRATGIPARFSGSGSGTEFTLTISSLQSEDFAVYYCQQYYSTPLTFGGGTKVEIKR
10 to 30 fold | 10 to 30 fold | binds | Polypeptide No. 102 (scFv, V domains shown, scFv) VH: EVQLLESGGGLVQPGGSLRLSCAASGFTFSNAWMSWVRQAPGKGLEWVSGIGGSGGTIYYADSVKGRFTISRDNSKNTLYLQMNSLRAEDTAVYYCAREVAAPLHPFGYYYYMDVWGKGTTVTVSS VL: not shown
10 to 30 fold | > 30 fold | binds | Polypeptide No. 99 (scFv, V domains shown, scFv) VH: QVQLVQSGAEVKKPGSSVKVSCKASGYTFSDYHIHWVRQAPGQGLEWMGWMNPNSGNTGYAQKFQGRVTITADESTSTAYMELSSLRSEDTAVYYCARTHSSGYYYWFDPWGQGTLVTVSS VL: DIQMTQSPSSLSASVGDRVTITCRASQGISNNLNWYQQKPGKAPKLLIYQASNKDTGVPSRFSGSGSGTDFTLTISSLQPEDFATYYCQQSYSSPPTFGQGTKVEIKR
> 30 fold | > 30 fold | binds | Polypeptide No. 104 (scFv, V domains shown, scFv) VH: EVQLLESGGGLVQPGGSLRLSCAASGFTFSSSWMHWVRQAPGKGLEWVAVISYDGSEEYYADSVKGRFTISRDNSKNTLYLQMNSLRAEDTAVYYCARLTDYGDYVLGRYLSDWGQGTLVTVSS VL: DIQMTQSPSSLSASVGDRVTITCRASQGISSYLAWYQQKPGKAPKLLIYAASSLQSGVPSRFSGSGSGTDFTLTISSLQPEDFATYYCQQSYSIPPTFGQGTKLEIKR
10 to 30 fold | 10 to 30 fold | binds | Polypeptide No. 107 (scFv, V domains shown, scFv) VH: QVQLVQSGAEVKKPGSSVKVSCKASGYTFTDYYIHWVRQAPGQGLEWMGGIIPIFGTANYAQKFQGRVTITADESTSTAYMELSSLRSEDTAVYYCAREPLWFGESSPHDYYGMDVWGQGTLVTVSS VL: DIQMTQSPSSLSASVGDRVTITCQASQDISNYLNWYQQKPGKAPKLLIYAASTLQSGVPSRFSGSGSGTDFTLTISSLQPEDFATYYCQQSYSSPPTFGQGTKVEIKR
10 to 30 fold | 10 to 30 fold | binds | Polypeptide No. 103 (scFv, V domains shown, scFv) VH: QVQLVQSGAEVKKPGASVKVSCKASGYTFTGYYMHWVRQAPGQGLEWMGWMNPDSGDTNYAQNFQGRVTMTRDTSTSTVYMELSSLRSEDTAVYYCATTRQPHYGMDVWGQGTTVTVSS VL: not shown
10 to 30 fold | 10 to 30 fold | binds | Polypeptide No. 115 (scFv, V domains shown, scFv) VH: QVQLVQSGAEVKKPGASVKVSCKASGYTFTGYYMHWVRQAPGQGLEWMGIISPSGGSPTYAQKFQGRVTMTRDTSTSTVYMELSSLRSEDTAVYYCAREGNGGMDVWGQGTTVTVSS VL: not shown
2 to 10 fold | 10 to 30 fold | binds | Polypeptide No. 118 (scFv, V domains shown, scFv) VH: EVQLVESGGGLVKPGGSLRLSCAASGFTISNAWMSWVRQAPGKGLEWVAHIWNDGSQKYYADSVKGRFTISRDDSKNTLYLQMNSLKTEDTAVYYCARDGALGVGPDDYWGQGTLVTVSS VL: DIVMTQSPLSLPVTPGEPASISCRSSQSLLHSNGYNYLDWYLQKPGQSPQLLIYAASSLQSGVPDRFSGSGSGTDFTLKISRVEAEDVGVYYCMQGLQTPHTFGGGTKVEIKR
> 30 fold | > 30 fold | binds | Polypeptide No. 101 (scFv, V domains shown, scFv) VH: EVQLLESGGGLVQPGGSLRLSCAASGFTFSSYGVHWVRQAPGKGLEWVSAISGDGGDTYYADSVKGRFTISRDNSKNTLYLQMNSLRAEDTAVYYCARDTWDYSNYGGIDYWGQGTLVTVSS VL: DIQMTQSPSSLSASVGDRVTITCRASQNINTFLNWYQQKPGKAPKLLIYAASTLQSGVPSRFSGSGSGTDFTLTISSLQPEDFATYYCQQYDSFPLTFGGGTKVEIKR
10 to 30 fold | 10 to 30 fold | binds | Polypeptide No. 105 (scFv, V domains shown, scFv) VH: EVQLLESGGGLVQPGGSLRLSCAASGFTFNNAWMTWVRQAPGKGLEWVAVISYDGSNKYYADSVKGRFTISRDNSKNTLYLQMNSLRAEDTAVYYCARMAVAGKGAFDIWGQGTMVTVSS VL: DIQMTQSPSSLSASVGDRVTITCRASQSIYSWLAWYQQKPGKAPKLLIYAASTLQSGVPSRFSGSGSGTDFTLTISSLQPEDFATYYCQQTYSTPVTFGQGTKVEIKR
> 30 fold | > 30 fold | binds | Polypeptide No. 116 (scFv, V domains shown, scFv) VH: EVQLLESGGGLVQPGGSLRLSCAASGFTFSNYAMAWVRQAPGKGLEWVSAISGSGGGTYYADSVKGRFTISRDNSKNTLYLQMNSLRAEDTAVYYCAREGGYDPDYYYYGMDVWGQGTTVTVSS VL: DIQMTQSPSSLSASVGDRVTITCRASQSISSYLNWYQQKPGKAPKLLIYATSRLQSGVPSRFSGSGSGTDFTLTISSLQPEDFATYYCQQGFNFPPTFGGGTKVEIKR
2 to 10 fold | 2 to 10 fold | binds | Polypeptide No. 106 (scFv, V domains shown, scFv) VH: QVQLVQSGAEVKKPGASVKVSCKASGYTFTGYYMHWVRQAPGQGLEWMGRIKPNSGGTDYAQKFQGRVTMTRDTSTSTVYMELSSLRSEDTAVYYCARGAYSGSYYGPIEYFQHWGQGTLVTVSS VL: DIQMTQSPSSLSASVGDRVTITCRASQSISWFLNWYQQKPGKAPKLLIYAASSLQNGVPSRFSGSGSGTDFTLTISSLQPEDFATYYCQQYGSFPPTFGGGTKVEIKR
> 30 fold | > 30 fold | binds | Polypeptide No. 110 (scFv, V domains shown, scFv) VH: QVQLVQSGAEVKKPGASVKVSCKASGYTFTDYYVHWVRQAPGQGLEWMGWMNPNSGNTGYAQKFQGRVTMTRDTSTSTVYMELSSLRSEDTAVYYCARDFIWVEGYLASPPPRFDYWGQGTLVTVSS VL: DIQMTQSPSSLSASVGDRVTITCRASQRIGNWLAWYQQKPGKAPKLLIYAASSLQSGVPSRFSGSGSGTDFTLTISSLQPEDFATYYCQQSYSTPLTFGQGTKLEIKR
2 to 10 fold | 2 to 10 fold | binds | Polypeptide No. 112 (scFv, V domains shown, scFv) VH: QVQLVQSGAEVKKPGSSVKVSCKASGSTLTGYDIHWVRQAPGQGLEWMGGIIPFLGTASYAQEFQGRVTITADESTSTAYMELSSLRSEDTAVYYCARGGGSGYDLDYWGQGTLVTVSS VL: DIQMTQSPSSLSASVGDRVTITCRSSESISSWLAWYQQKPGKAPKLLIYSASTLQSGVPSRFSGSGSGTDFTLTISSLQPEDFATYYCQQSYSTPVTFGQGTRLEIKR
10 to 30 fold | > 30 fold | binds | Polypeptide No. 113 (scFv, V domains shown, scFv) VH: QVQLVQSGAEVKKPGSSVKVSCKASGGTFSSYDINWVRQAPGQGLEWMGGLIPVFGTTHYAQNFQGRVTITADESTSTAYMELSSLRSEDTAVYYCATGLGVTTSNYYYGMDVWGQGTLVTVSS VL: DIQMTQSPSSLSASVGDRVTITCRASQGIRNDIGWYQQKPGKAPKLLIYAASTLQSGVPSRFSGSGSGTDFTLTISSLQPEDFATYYCQQTYMMPYTFGQGTKLEIKR
2 to 10 fold | 2 to 10 fold | binds | Polypeptide No. 117 (scFv, V domains shown, scFv) VH: EVQLLESGGGLVQPGGSLRLSCAASGFTFGDYPMSWVRQAPGKGLEWVAGISYDGLNEHYADSVKGRFTISRDNSKNTLYLQMNSLRAEDTAVYYCARDRDSGPSGFQHWGQGTLVTVSS VL: DIQMTQSPSSLSASVGDRVTITCRASQTIGTWLAWYQQKPGKAPKLLIYDASSLESGVPSRFSGSGSGTDFTLTISSLQPEDFATYYCQQSYSTPPTFGQGTKVEIKR
10 to 30 fold | > 30 fold | binds | Polypeptide No. 114 (scFv, V domains shown, scFv) VH: QVQLVQSGAEVKKPGASVKVSCKASGGTFSKYAISWVRQAPGQGLEWMGWMNPNSGNTGYAQKFQGRVTMTRDTSTSTVYMELSSLRSEDTAVYYCARDQGLTGYFDLWGRGTLVTVSS VL: DIQMTQSPSSLSASVGDRVTITCRASQSIGNWLAWYQQKPGKAPKLLIYKASSLESGVPSRFSGSGSGTDFTLTISSLQPEDFATYYCQQSYNTPPTFGPGTKVDIKR
